Consider three molecules from article PMC5454376, “Molecular mechanism of Gαi activation by non-GPCR proteins with a Gα-Binding and Activating motif” (Nature Communications, 2017).

For one assay, the system named is Gαi3-[GDP]. The experiment in a line: Pull-down, GDP-loaded Gαi3. In kind it is binding, rat. Conditions: GST fusion on glutathione-agarose, 100 μM GDP, 4 °C, pH 8.1, immunoblot. As for the experimental part:
(§1) Preparation of nucleotide-free Gαi3 and pull-down assay
(§2) His-tagged rat Gαi3 cloned in a pET28b vector was purified from BL21(DE3) bacteria (Life Technologies) after isopropyl-[beta]-D-thiogalactoside (IPTG) induction. Nucleotide-free Gαi3 was prepared by promoting nucleotide release with high concentrations of ammonium sulfate in the presence of glycerol. For this, His-Gαi3 was run through a Superdex S75 column equilibrated with 20 mM Tris-HCl (pH 7.4), 20 mM NaCl, 1 mM MgCl2, 1 mM dithiothreitol (DTT), 10 μM GDP and 5% (v/v) glycerol. A volume of 200 μl of His-Gαi3 at ∼5 μM were loaded on a Sephadex G-25 column (10 ml) equilibrated with 1 M ammonium sulfate, 20% (v:v) glycerol (pH 6) and the protein eluted at room temperature with the same buffer. Protein-containing fractions were pooled (∼400–600 μl) and incubated overnight at 4 °C. […] After transfer to polyvinylidene difluoride (PVDF) membranes, GST-fused proteins were visualized by Ponceau S staining and His-Gαi3 detected by immunoblotting with mouse anti-polyHis-Tag primary antibodies (1:2,500, Sigma, H1029) and goat anti-mouse IRDye 800F(ab′)2 secondary antibodies (1:10,000, Li-Cor) using an Odyssey Infrared Imaging System (Li-Cor Biosciences). […]
(A western blot detects proteins with antibodies after separation by electrophoresis.)

For the next assay, the system named is Gαi3-[GTP]. The assay can be described thus: Pull-down, GDP/AlF4^−-loaded Gαi3. In kind it is binding, rat. As to conditions: GST fusion on glutathione-agarose, 4 °C, pH 8.1, immunoblot. As for the experimental part:
as §1, §2

For a further assay, the system named is Gαi3. As to conditions: GBA motif of CALNUC; cited from earlier work. The text has this: The disordered nature of GIV-CT is intrinsic and not a consequence of the truncation of the protein at residue 1,660 since disorder is predicted for the C-terminal 330 residues of the GIV sequence, and larger fragments of GIV can also recapitulate G-protein binding and/or activation in a GBA motif-dependent manner. The ...

The test system of the next assay is Gαi3-[ ]. The experiment in a line: Pull-down, nucleotide-free Gαi3. Conditions: GST fusion on glutathione-agarose (GIV 1,671–1,755; Ric-8A 12–491), 4 °C, pH 8.1, immunoblot. In kind it is binding, rat. As for the experimental part: as §1, §2
Another assay has as its system Gαi3 N269D. The experiment in a line: Co-immunoprecipitation in HEK293T cells, Gαi3 N269D versus WT. The format is binding. Conditions: HEK293T lysates, FLAG-tagged Gαi3 N269D vs WT; GST-Ric-8A 1 μg added. On the procedure:
HEK293T cells (American Type Culture Collection) were grown at 37 °C in DMEM supplemented with 10% FBS, 100 U ml^−1 penicillin, 100 μg ml^−1 streptomycin, 1% L-glutamine and 5% CO2. DNA plasmids encoding for C-terminally 3xFLAG-tagged Gαi3 (ref. [25]) or an empty plasmid (p3xFLAG-CMV-14) were transfected using the calcium phosphate method in 10 cm dishes. The DNA amount for the Gαi3 N269D plasmid was threefold (12 μg) of that for Gαi3 WT (4 μg) to equalize their expression levels. Cells were collected 48 h after transfection by gently scrapping in PBS, centrifuged and resuspended in 1 ml of lysis buffer (20 mM HEPES (pH 7.2), 5 mM Mg(CH3COO)2, 125 mM K(CH3COO), 0.4% (v:v) Triton X-100, 1 mM DTT, 10 mM β-glycerophosphate and 0.5 mM Na3VO4 supplemented with a protease inhibitor cocktail (Sigma; catalogue #S8830)) and cleared (14,000g for 10 min) before use. Lysates were supplemented with 1 μg of purified GST-Ric-8A (12–491)[22] and 2 μg of mouse anti-FLAG antibody (Sigma F1804), and incubated for 4 h at 4 °C with rotation. BSA-blocked Protein G agarose beads (Thermo-Scientific) were added and tubes incubated for additional 90 min at 4 °C. Beads were washed four times (4.3 mM Na2HPO4, 1.4 mM KH2PO4, pH 7.4, 137 mM NaCl, 2.7 mM KCl, 0.1% (v/v) Tween 20, 10 mm MgCl2, 5 mm EDTA and 1 mm DTT) and immunoprecipitated proteins eluted by boiling in Laemmli sample buffer. […]

The subject of another assay is Gα. As to conditions: cited from earlier work. The source says: GBA proteins also differ from the non-receptor GEF Ric-8A. Although both Ric-8A and GBA proteins activate monomeric Gα instead of Gαβγ trimers, removal of the C terminus of Gα only abrogates Ric-8A action. This indicates a different mode of G-protein binding for Ric-8A that resembles how GPCR bind. […] We are confident about the similarity on which the model was built because of several lines of evidence presented in this manuscript and in previously published work. […] Second, sequence similarity with the KB-752 and rudimentary modeling allowed us to identify residues in the GBA motif of GIV ...

B1: GAIP: GAIP (also known as RGS19), a GAP used as control (protein)
chain: MPTPHEAEKQITGPEEADRPPSMSSHDTASPAAPSRNPCCLCWCCCCSCSWNQERRRAWQASRESKLQPLPSCEVCATPSPEEVQSWAQSFDKLMHSPAGRSVFRAFLRTEYSEENMLFWLACEELKAEANQHVVDEKARLIYEDYVSILSPKEVSLDSRVREGINKKMQEPSAHTFDDAQLQIYTLMHRDSYPRFLSSPTYRALLLQGPSQSSSEA
modifications: left off: GST, end not stated, kept
notes: GAIP (also known as RGS19), a GAP used as control
As to B1, the “binding to Gαi3-[GDP]” value in the assay on Gαi3-[GDP] was “not to Gαi3-[GDP]”. Besides, in the assay with Gαi3-[GTP], the “binding to Gαi3-[GTP]” value is listed as “binds exclusively”.

B2: CALNUC: GBA motif protein with calcium-binding EF hands (protein, UniProt Q02818 27-461, looked up)
Nucleobindin-1: VPLERGAPNKEETPATESPDTGLYYHRYLQEVIDVLETDGHFREKLQAANAEDIKSGKLSRELDFVSHHVRTKLDELKRQEVSRLRMLLKAKMDAEQDPNVQVDHLNLLKQFEHLDPQNQHTFEARDLELLIQTATRDLAQYDAAHHEEFKRYEMLKEHERRRYLESLGEEQRKEAERKLEEQQRRHREHPKVNVPGSQAQLKEVWEELDGLDPNRFNPKTFFILHDINSDGVLDEQELEALFTKELEKVYDPKNEEDDMREMEEERLRMREHVMKNVDTNQDRLVTLEEFLASTQRKEFGDTGEGWETVEMHPAYTEEELRRFEEELAAREAELNAKAQRLSQETEALGRSQGRLEAQKRELQQAVLHMEQRKQQQQQQQGHKAPAAHPEGQLKFHPDTDDVPVPAPAGDQKEVDTSEKKLLERLPEVEVPQHL
As for B2, the “Gαi3 binding, calcium dependence” value with Gαi3 is on record as “only when the protein is not calcium-bound”.

B3: Ric-8A: non-receptor GEF used as control (protein)
chain: TGEEDAVTEALRSFNREHSQSFTFDDAQQEDRKRLAKLLVSVLEQGLSPKHRVTWLQTIRILSRDRSCLDSFASRQSLHALACYADIAISEEPIPQPPDMDVLLESLKCLCNLVLSSPTAQMLAAEARLVVRLAERVGLYRKRSYPHEVQFFDLRLLFLLTALRTDVRQQLFQELHGVRLLTDALELTLGVAPKENPLVILPAQETERAMEILKVLFNITYDSVKREVDEEDAALYRYLGTLLRHCVMADAAGDRTEEFHGHTVNLLGNLPLKCLDVLLALELHEGSLEFMGVNMDVINALLAFLEKRLHQTHRLKECVAPVLSVLTECARMHRPARKFLKAQVLPPLRDVRTRPEVGDLLRNKLVRLMTHLDTDVKRVAAEFLFVLCSESVPRFIKYTGYGNAAGLLAARGLMAGGRPEGQYSEDEDTDTEEYREAKASINPVTGRVEEKPPNPMEGMTEEQKEHEAMKLVNMFDKLSR
modifications: left off: GST, end not stated, kept
notes: non-receptor GEF used as control
As for B3, the “binding to Gαi3-[ ]” value with Gαi3-[ ] is “binds preferentially”. In the assay on Gαi3-[GDP], the “binding to Gαi3-[GDP]” value is given as “weaker binding”. In addition, in the assay on Gαi3-[GTP], the “binding to Gαi3-[GTP]” value was “dissociation”. The “co-immunoprecipitation with nucleotide-free-mimicking mutant compared with WT” value in the assay with Gαi3 N269D is “binds more”. For the same molecule, in the assay on Gα, the “effect of removal of the C terminus of Gα” value is “abrogates”.
